Test results reported in PMC6233201 (Scientific Reports, 2018).

Molecular target: the molecule itself
Assay: SEC; gel filtration (Superdex 200 10/300 GL) of the Ni-NTA purified DEDs; self-association read from the elution position (monomer, dimer, oligomer peaks)

B1: wild-type death effector domains (DEDs) of human caspase-8 (residues 1-188) with a C-terminal His6 tag (domain or fragment, UniProt Q14790-1 1-188, looked up)
chain: MDFSRNLYDIGEQLDSEDLASLKFLSLDYIPQRKQEPIKDALMLFQRLQEKRMLEESNLSFLKELLFRINRLDLLITYLNTRKEEMERELQTPGRAQISAYRVMLYQISEEVSRSELRSFKFLLQEEISKCKLDDDMNLLDIFIEMEKRVILGEGKLDILKRVCAQINKSLLKIINDYEEFSKERSSS
notes: tandem death effector domains (DED) of human caspase-8, residues 1-188, UniProt Q14790-1; The soluble protein was mixed with E. coli slyD after purification; also called DED^WT; wild-type DEDs; source: E. coli Rosetta (DE3) pLysS, pET-21b, purified (Ni-NTA, gel filtration); very low yields of soluble protein; not shown: His6, C-terminal, kept
binding result: binds
